{"source": "patent US20020081293A1", "key": {"[1]": {"target": "human factor D purified from human serum (human) (UniProt P00746)", "sequence (P00746 26-253)": "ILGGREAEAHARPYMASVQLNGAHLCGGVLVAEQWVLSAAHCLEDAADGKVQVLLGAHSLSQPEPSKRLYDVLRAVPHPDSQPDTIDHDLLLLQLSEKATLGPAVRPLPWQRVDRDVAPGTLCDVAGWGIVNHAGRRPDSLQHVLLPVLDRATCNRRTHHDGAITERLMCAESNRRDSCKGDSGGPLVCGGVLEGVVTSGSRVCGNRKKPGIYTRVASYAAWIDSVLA", "assay": "SPR (BIAcore), MAb captured by rabbit anti-mouse IgG, factor D as analyte"}, "[2]": {"target": "human factor D purified from human serum (human) (UniProt P00746)", "assay": "SPR (BIAcore), factor D amine-coupled to the chip, MAb 166-32 as analyte"}, "[3]": {"target": "human factor D purified from human serum (human) (UniProt P00746)", "assay": "cell-based or functional assay"}, "[4]": {"target": "dog factor D (in serum) (dog)", "assay": "cell-based or functional assay", "details": "scale: times less effective than on human factor D"}}, "data": [{"substance": "monoclonal antibody 166-32", "values": [{"measurement": "Kd", "setting": "[1]", "result": "< 0.1", "unit": "nM"}, {"measurement": "koff", "setting": "[1]", "result": 0.00011, "unit": "s⁻¹"}, {"measurement": "kon", "setting": "[1]", "result": "> 1e+06", "unit": "M⁻¹ s⁻¹"}, {"measurement": "Kd", "setting": "[2]", "result": 0.16, "unit": "nM"}, {"measurement": "koff", "setting": "[2]", "result": "7.6e-05", "unit": "s⁻¹"}, {"measurement": "kon", "setting": "[2]", "result": 460000, "unit": "M⁻¹ s⁻¹"}, {"measurement": "inhibition of factor D dependent hemolysis of unsensitized rabbit RBCs (factor D depleted human serum with 0.1 µg/ml supplemented factor D)", "setting": "[3]", "result": 0.3, "unit": "µg/mL"}, {"measurement": "molar ratio for complete inhibition of alternative complement activity in extracorporeal circuit plasma (18 µg/ml MAb) (molar ratio (MAb : factor D))", "setting": "[3]", "result": 1.5}, {"measurement": "molar ratio for inhibition of factor D dependent hemolysis (molar ratio (MAb 166-32 to factor D))", "setting": "[3]", "result": 0.5}, {"measurement": "neutralization of dog factor D in hemolytic assays, against human factor D", "setting": "[4]", "result": 10}]}]}
